These results are taken from patent US20260210939A1, “MODIFIED OLFACTORY RECEPTORS” (GIVAUDAN SA, priority 2022, published 2026).

The data set deals with T1, OR5B12 (Homo sapiens, UniProt Q96R08, C141R).
T1 construct: Improved functional expression of modified OR-genes containing the truncated, optimized C-terminus; expressed in transfected cells; host or cells: HEK293T stably expressing human RTP1S(V227I) and RTP2(L220R)
T1 sequence (Q96R08 with tags, fused parts or gaps C141R): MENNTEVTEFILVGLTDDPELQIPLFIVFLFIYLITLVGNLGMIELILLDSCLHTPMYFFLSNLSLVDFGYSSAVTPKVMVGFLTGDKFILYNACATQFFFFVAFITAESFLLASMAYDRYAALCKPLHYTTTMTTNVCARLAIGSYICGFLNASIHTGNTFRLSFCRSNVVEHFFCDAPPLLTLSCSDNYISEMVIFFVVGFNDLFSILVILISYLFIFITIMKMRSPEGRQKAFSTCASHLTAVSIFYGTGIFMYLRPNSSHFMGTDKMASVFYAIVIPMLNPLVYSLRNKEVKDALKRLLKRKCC
The experiment in a line: CRE-luciferase assay, HEK293T cells expressing OR5B12 (wild-type / modified C-terminus). In kind it is cell-based. The conditions noted are these: for % of the activation by the optimized sequence RNKEVKDALKRLLKRKCC: OR5B12 variant; for Fold-improvement potency / Fold-improvement threshold: changed C-term. vs wild-type.

For “SEQ ID NO: 140 (RNKEVKDALKRLLKRKCCA; source 1..19: note = C-terminal domain sequence)”, the “% of the activation by the optimized sequence RNKEVKDALKRLLKRKCC” value (“% of the activation” for short) worked out at 230.04% (31 μM Hedione HC) and 143.71% (62.5 μM Hedione HC).
Regarding “SEQ ID NO: 137 (RNKEVKDALKRLLKRKCCM; source 1..19: note = C-terminal domain sequence)”, the “% of the activation” value is listed as 177.47% (31 μM Hedione HC) and 182.76% (62.5 μM Hedione HC).
In the case of `CCCCCC1C(=O)CCC1CC(=O)OC` (racemic) [Hedione HC, reference compound], the Comments on efficacy is 4-fold lower, the Fold-improvement potency came out at 3.8 and the Fold-improvement threshold is on record as 11. For the same compound, for the setting “changed C-term. SEQ ID NO: 86”, the “Detection threshold; concentration for 2-fold induction” value turned out to be 8.8 µM and the EC50 was found to be 18.3 µM. Also, for the setting “wild-type”, the “Detection threshold; concentration for 2-fold induction” value was found to be 96 µM and the 50% effective concentration (EC50) was found to be 69 µM.
Consider “SEQ ID NO: 138 (RNKEVKDALKRLLKRKCCS; source 1..19: note = C-terminal domain sequence)”, for which the “% of the activation” value (31 μM Hedione HC) was 176.99% and the “% of the activation” value (62.5 μM Hedione HC) amounted to 75.63%.
For `CCCCCC1C(=O)CCC1CC(=O)OC` (centres unmarked) [Hedione, reference compound], the Comments on efficacy result is “type only 1.75-”, the Fold-improvement potency is above 5 and the Fold-improvement threshold is above 9. Besides, under “changed C-term. SEQ ID NO: 86”, the “Detection threshold; concentration for 2-fold induction” value is 29 µM and the midpoint of the response, the EC50, lay at 58.3 µM. For the setting “wild-type”, the “Detection threshold; concentration for 2-fold induction” value is recorded as “(>>250) μM” and the EC50 was above 250 µM.
“SEQ ID NO: 146 (RNKEVKDALKRLLKRKCCR; source 1..19: note = C-terminal domain sequence)”: the “% of the activation” value reads like this: (31 μM Hedione HC) 619.88%; (62.5 μM Hedione HC) 248.52%.
For “SEQ ID NO: 135 (RNKEVKDALKRLLKRKCCF; source 1..19: note = C-terminal domain sequence)”, the “% of the activation” value runs as follows: (31 μM Hedione HC) 207.32%; (62.5 μM Hedione HC) 127.22%.
As for “SEQ ID NO: 148: printed for RNKEVKDALKRLLKRKCRR in Table 6”, the “% of the activation” value by setting is: (31 μM Hedione HC) 181.2%; (62.5 μM Hedione HC) 189.0%.
For “SEQ ID NO: 139 (RNKEVKDALKRLLKRKCCP; source 1..19: note = C-terminal domain sequence)”, the “% of the activation” value (31 μM Hedione HC) is 98.68% and the “% of the activation” value (62.5 μM Hedione HC) turned out to be 98.17%.
For “SEQ ID NO: 136 (RNKEVKDALKRLLKRKCCL; source 1..19: note = C-terminal domain sequence)”, in that order: 533.84% and 189.64%.
The matching figures for “SEQ ID NO: 141 (RNKEVKDALKRLLKRKCCY; source 1..19: note = C-terminal domain sequence)”: 298.48% and 274.09%.
For “SEQ ID NO: 143 (RNKEVKDALKRLLKRKCCN; source 1..19: note = C-terminal domain sequence)”, in that order: 137.13% and 91.94%.
Consider “SEQ ID NO: 134 (RNKEVKDALKRLLKRKCCC; source 1..19: note = C-terminal domain sequence)”, for which the “% of the activation” value runs as follows: (31 μM Hedione HC) 168.91%; (62.5 μM Hedione HC) 121.37%.
With “SEQ ID NO: 144 (RNKEVKDALKRLLKRKCCD; source 1..19: note = C-terminal domain sequence)”, the “% of the activation” value is recorded as 86.54% (31 μM Hedione HC) and 56.54% (62.5 μM Hedione HC).

In general, EC50 refers to the concentration that produces a half-maximal response.
